Article PMC12176259, “Bacterial transcriptional repressor NrdR – a flexible multifactorial nucleotide sensor”

T1: NrdR (EcoNrdR) (Escherichia coli K-12 MG1655, UniProt P0A8D0 1-149)
T1 sequence: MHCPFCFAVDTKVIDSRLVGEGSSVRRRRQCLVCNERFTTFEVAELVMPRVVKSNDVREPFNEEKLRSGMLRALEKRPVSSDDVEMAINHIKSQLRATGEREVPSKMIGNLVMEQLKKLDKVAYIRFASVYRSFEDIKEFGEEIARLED

B1: EcoEF7,3 (dsDNA)
DNA 1: GCACTATTTGCTATATATTGTGTGGTTGAATCTTTTTTCAACTACATCTAGTATCTC
DNA 2: GAGATACTAGATGTAGTTGAAAAAAGATTCAACCACACAATATATAGCAAATAGTGC
B2: ribX promoter (dsDNA)
DNA 1: AGCATCGATCCTTTATCTCAAAAGCGTTGCGCCTTTGTTGTATCGTCAGTTCAGGGT
DNA 2: ACCCTGAACTGACGATACAACAAAGGCGCAACGCTTTTGAGATAAAGGATCGATGCT

Key:
[1] = target: T1, NrdR (EcoNrdR); assay: cryo-EM structure (4 A); ATP + dATP 0.5 mM each, 5 mM Mg2+, Zn2+; NrdR tetramer; MST: 17 mM Tris-HCl pH 8.6, 100 mM NaCl, 7 mM MgCl2, 0.33 mM TCEP, 0.025% Tween-20, nucleotides 1 mM each, 5 nM Cy5-DNA, room temperature; conditions: protein: recombinant; tags: C-terminal His6; chain copies: 4; blunt
[2] = target: T1, NrdR (EcoNrdR); assay: MST; ATP + dATP; MST: 17 mM Tris-HCl pH 8.6, 100 mM NaCl, 7 mM MgCl2, 0.33 mM TCEP, 0.025% Tween-20, nucleotides 1 mM each, 5 nM Cy5-DNA, room temperature; conditions: protein: recombinant; tags: C-terminal His6; chain copies: 4; label: 5'-Cy5 sense strand; blunt

Binder	binding result [1]	binding result [2]
B1	binds	–
B2	–	no binding
